According to publication PMC4889959 (Nucleic Acids Research, 2016):

Target: the molecule itself
Assay: SEC; 2 mg of protein (20 mg/ml) on a calibrated Superdex 75 column (120 ml), 25 mM pH 8.0 Tris-HCl, 150 mM NaCl, 2 mM DTT

B1: Human SLX4BTB (residues 660–795) (domain or fragment, UniProt Q8IY92 660-795, looked up)
chain: QDKHPDRGGRTLLSLGLLVADFGAMVNNPHLSDVQFQTDSGEVLYAHKFVLYARCPLLIQYVNNEGFSAVEDGVLTQRVLLGDVSTEAARTFLHYLYTADTGLPPGLSSELSSLAHRFGVSELVHLCEQVPIATDS
stoichiometry N: 2
